According to the supplement of paper PMC9170038:

Test system: MS2 coat protein
Experiment: apparent KD of MS2 coat protein; designed switch direction (-1 OFF switch, 1 ON switch): -1; higher = weaker reporter binding
How it was run: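 The buffer was Tris-HCl pH 7.5 with KCl, MgCl2, BSA, DTT, tRNA and Tween-20. In it, SNAP-549-labelled MS2 coat protein was titrated in doubling steps from 0.7 or 1.5 nM to 3 µM over chip-bound RNA switches transcribed by stalled E. coli RNA polymerase on Illumina chips. Apparent KD is the per-design median over clusters of curve fits to normalised fluorescence.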

[1] = Eterna round: R95, input ligand: FMN 200 uM
[2] = Eterna round: R95, input ligand: microRNA oligo, concentration not stated
[3] = Eterna round: R95, input ligand: none
[4] = input ligand: microRNA oligo, concentration not stated

Row | Sequence | apparent KD of MS2 coat protein (input ligand: FMN 200 uM) | apparent KD of MS2 coat protein (input ligand: none) | apparent KD of MS2 coat protein [1] | apparent KD of MS2 coat protein [2] | apparent KD of MS2 coat protein [3] | apparent KD of MS2 coat protein [4]
1 | AGCAUGUGAGGAUAUGUACCUGAGUGCUUUGCGCUCAGGAAACAGAAGGCACAUGAGGAUCACCCAUGUGAAAA [jl-ex4-4.45 ViennaUCT mod] (Eterna round: R97, puzzle: Exclusion 4) | 68.7 nM | 281 nM | – | – | – | –
2 | CUGUGAUGAGGAUAUACAUGAGGAUCACCCAUGUGUCCUCUGAUGGGUAGGGACCCUGGUAGAAGGCAUUGAGA [Eternabot (L1) Solution 52] (Eterna round: R97, puzzle: Exclusion 3) | 19.2 nM | 15.5 nM | – | – | – | –
3 | CUGAGGUAGCGGUCCUAUGACAUGAGGAUCACCCAUGUACCUUGCUUUGAGCUUUAAGCUCGUCUUAUGAUUCUCGG [Mat - Sensor v3 - turn-off var 1 - JL Mod - D44] (puzzle: Sensor v3, turn-off variant 1) | – | – | 504 nM | 625 nM | 861 nM | –
4 | AGAUGGCGAGGAUAUACAUGAGGAUCACCCAUGUGAGAAGAAAGAGUGAGGAAGAAAAGUAGAAGGCGCUGUCA [Mat - Exclusion 3 - Mod of Salish D19] (puzzle: Exclusion 3) | – | – | 209 nM | 95.4 nM | 76.1 nM | –
5 | UAGAAAUUCAACGAGUGAAACAUGAGGAUCACCCAUGUGGUGGUAAGGAACAAGCUUUUUGCACGUACUUAUAAGAA [JR_SV3TOV1_Sub003] (puzzle: Sensor v3, turn-off variant 1) | – | – | 239 nM | 422 nM | 437 nM | –
6 | AGCAACGUACAGGAUAUACUUCACCUUCUAGAAGUAGAAGGGUGCACAUGAGGAUCACCCAUGUUAGCGAGCAG [Eternabot (Original) Solution 25] (Eterna round: R97, puzzle: Exclusion 6) | 18.4 nM | 15.9 nM | – | – | – | –
7 | AAUAACAAGCCGAUCCUCAACAUGAGGAUCACCCAUGUGCUCGUCUUGUAAAGUACUAUCACGAAAGUGAUAGUACA (Eterna round: R97, puzzle: Sensor, turn-off variant 1) | 319 nM | 419 nM | – | – | – | –
8 | CUUUAGUGAGGAUAUUAGUAGUAAUACAAUAGUAUUACUACUGAGAAGGCACAUGAGGAUCACCCAUGUUCCUC [Mat - Exclusion 4 - Mod of Omei - D79] (Eterna round: R96, puzzle: Exclusion 4) | 303 nM | 28.5 nM | – | – | – | 25 nM
9 | AUUGUUUAUGUAGGAUAUGCCUGGCGUGCCUUUGCAGAAGGACAUGAGGAUCACCCAUGUAACAUGAGGCUCACCCAUGUCGCU [salish99_ExNG1_r04_112] (Eterna round: R96, puzzle: Exclusion NG 1) | 432 nM | 311 nM | – | – | – | 220 nM
10 | UAUGUUGUUGUGAGGAUAUACUUUGUUUGACCGUAGUAGAAGGCACAUGAGGAUCACCCAUGUAGAUUUUUGGU [JR_BME4_Sub008] (puzzle: Brourd's mod of Exclusion 4) | – | – | – | 9.12 nM | – | –
11 | UCCAGCAUACGGAGAUCCAACAUGAGGAUCACCCAUGUCUGGAAAGCUUUUUGCUUGUCUUAUCCGUCUCUGUGUGU [Design #7] (Eterna round: R97, puzzle: Sensor, turn-off variant 1) | 32.7 nM | 35.8 nM | – | – | – | –
12 | UUUAAUUUUUUUUUUUUACAAGCUUUUUGCUCGUCUUAUACAUGAGGAUCACCCAUGUAGGUGAGAAAUGAAUUAUC [JMF 94] (puzzle: Sensor v3, turn-off variant 2) | – | – | 26.5 nM | 152 nM | 29.5 nM | –
13 | GUAAAGGUAGGAUAUACGAAGAAAAAGGGUAGAAGAAAAACACAUGAGGAUCACCCAUGUAGAAGGACCAAAUG [Mat - Exclusion 2 - Mod of my Tesla design - D3] (puzzle: Exclusion 2) | – | – | 77.6 nM | 28.6 nM | 34 nM | –
14 | UAUAUGUCAGGAUAUCGCAACUGCGCGCGCAAGAAUCAUAACGAGAAGGGACAUGAGGAUCACCCAUGUACACU [I dont know] (puzzle: Exclusion 4) | – | – | – | 18.1 nM | – | –
15 | GAGGCAUGCCGAGGUCCACACAUGAGGAUCACCCAUGUAAUGACAGGCUUUUUACUCGUUUUACCGCUAUCGCGUUC [Gedied] (puzzle: Sensor v3, turn-off variant 1) | – | – | 14.9 nM | 21.7 nM | 12.7 nM | –
16 | GUGGUGGGUUUUCCGAGUGACAUGAGGAUCACCCAUGUGUUAGUUUGAGGUAUCAAGCGAAUGGCUCGUCUUAUGUG [JR_SV3TOV1_Sub046] (puzzle: Sensor v3, turn-off variant 1) | – | – | 140 nM | 21.2 nM | 154 nM | –
17 | CAAGCAGAAUAAAGGUCCGACAUGAGGAUCACCCAUGUUCGUCGGGAUAUGCUUCCUUUACGAGGGAGCACCAGAAA [Eternabot (L2) Solution 25] (Eterna round: R97, puzzle: Sensor, turn-off variant 1) | 34.3 nM | 38.2 nM | – | – | – | –

Row | Sequence | apparent KD of MS2 coat protein (input ligand: FMN 200 uM) | apparent KD of MS2 coat protein (input ligand: none) | apparent KD of MS2 coat protein [1] | apparent KD of MS2 coat protein [2] | apparent KD of MS2 coat protein [3] | apparent KD of MS2 coat protein [4]
18 | CAUAAUGCAGGAUAUACCAAAUGGCAGUGAAUGCGUGCGCAACAUGAGGAUCACCCAUGUAGAAGGGCACAAGA [Eternabot (Original) Solution 27] (Eterna round: R97, puzzle: Exclusion 2) | 18 nM | 13.5 nM | – | – | – | –
19 | UAUAUAUAGUAAGGAUAUGUAACUAUUUUAUAAACAGAAGGUACUGACAUGAGGAUCACCCAUGUUUUAGUGUGGGCAUGUAGA [JMF's solution 29] (Eterna round: R96, puzzle: Exclusion NG 1) | – | – | – | – | – | 72.6 nM
20 | UUUUGCUCAGGAUAUACAUGAGGAUCACCCAUGUAUAUUGAAGAUAAUACAUGGGAAUGUAGAAGGGAGCUCAU [Omei Ex3 Pseudoloop 19] (Eterna round: R97, puzzle: Exclusion 3) | 73.5 nM | 156 nM | – | – | – | –
21 | GUCAGCUCGUCAGGAUAUACAUGAGGAUCACCCAUGUGAUCAAUAGCAGCUUCGGCUGCAUUAAUGUAGAAGGGACGAGCUGAC [ENG2/5-B1] (Eterna round: R96, puzzle: Exclusion NG 2) | 34.7 nM | 368 nM | – | – | – | 33 nM
22 | CUGUACUGAGGAUAUACAUGAGGAUCACCCAUGUGAUUUAGUGCACGCGUACGUGUACGUAGAAGGCAGUACAG [Mat - Exclusion 3 - Eli Mod - D36] (Eterna round: R97, puzzle: Exclusion 3) | 183 nM | 25.2 nM | – | – | – | –
23 | ACAUGAGGAUCACCCAUGUCAGGCGGGUCCUCUCCGGCUGUUGAGGAUAUAGUCCGGUAUCCGCGCUAGAAGGUGAGGGCCGGC [Aenatbe mod 18] (Eterna round: R96, puzzle: Exclusion NG 3) | 18.1 nM | 20.2 nM | – | – | – | 16.4 nM
24 | CGGAGCAGAGGGAGAUCCAACAUGAGGAUCACCCAUGUCUCACAAGCUUUUUGCUCAUCUUAUUGUACCUUGGUGCU [JL ViennaUCT Edcesobi mod 6] (puzzle: Sensor v3, turn-off variant 1) | – | – | 40.5 nM | 10.1 nM | 46.8 nM | –
25 | GUCCGGCAUGUAGGAUAUGGAUCCGAUUAGGAUUUAGAAGGACAUGAGGAUCACCCAUGUGCAUUUAAUUAGUCAUUACCGGAC [EXclNG1-LROPPY04] (Eterna round: R96, puzzle: Exclusion NG 1) | 16.4 nM | 16.6 nM | – | – | – | 12.5 nM
26 | ACAUGAGGAUCACCCAUGUCUGGCUGGUCUGUUCCGGCUGUCGAGGAUAUAGUCCGGUGUUCGCGCUAGAAGGUGAGGGCUGGA [Aenatbe mod 44] (Eterna round: R96, puzzle: Exclusion NG 3) | 153 nM | 87.4 nM | – | – | – | 68.6 nM
27 | CUUCGACAUGAGGAUCACCCAUGUCAGGAUAUUGUGUAUCGGGUUUUUUACGGAUAGGCAAGAAGGGAUGUGUG [LRO-Excl1-06] (puzzle: Exclusion 1) | – | – | – | 32.7 nM | – | –
28 | UAGCAAGCAAUAAGAUCCCACAUGAGGAUCACCCAUGUGCUCGUCUUAUAAAAGGUUUCGACGAAAACGUCGAGACC [Eli 91 v28] (Eterna round: R97, puzzle: Sensor, turn-off variant 1) | 19.8 nM | 16 nM | – | – | – | –
29 | GCAUCCAAAGUGAGGAUAUACCUCUGGAUACAGAGGUAGAAGGCACAUGAGGAUCACCCAUGUUCCUAGGAUGC [Fiskers BMX 4 - 38] (puzzle: Brourd's mod of Exclusion 4) | – | – | – | 13.3 nM | – | –
30 | UGAAUGUGAGGAUAUGGUGAGUAGUGCCUAAGCGCUGCUCACCAGAAGGCACAUGAGGAUCACCCAUGUACUUG [Mat - Exclusion 4 - Mod of JL - D19] (puzzle: Exclusion 4) | – | – | – | 47.9 nM | – | –
31 | AACUGGCGAGGAUAUACUUGGCAUAUAGCCUAAUUUCGGCUACUUGAGGAUCACCCAAGUAGAAGGUGCACGGC [Anlaxebe] (Eterna round: R97, puzzle: Exclusion 2) | 16.5 nM | 15.1 nM | – | – | – | –
32 | UUUAAUUUUUUUUUUUUACAAGCUUUUUGCUCGUCUUAUACAUGAGGAUCACCCAUGUGGGUGAAAGAUAGAUUGUC [JMF's solution 3] (puzzle: Sensor v3, turn-off variant 2) | – | – | 87.2 nM | 20.4 nM | 35.8 nM | –
33 | CCUCAGUGAGGAUAUGCUGCCGCCGUGAAUACACACCGCGCGUAGAAGGCACAUGAGGAUCACCCAUGUGAAGG [Eternabot (Original) Solution 9] (Eterna round: R97, puzzle: Exclusion 4) | 354 nM | 97.7 nM | – | – | – | –
